Reference: patent publication US5688488A, “Composition and method for tumor imaging” (priority 1995, dated 1997)
Each block holds one molecule with its values, some of them ahead of it.

Legend:
[1] = target: membrane-bound folate-binding-protein receptor (FBP); details: cited from earlier work
physchem = type: physicochemical; details: water
Experimental: The crude product contained a mixture of folate-deferoxamine conjugates, wherein the folate is linked to DF via its α-carboxyl or γ-carboxyl group as well as unreacted folic acid. The two isomers of DF-folate were isolated and purified on a weak anion-exchange column. Briefly, the product mixture was loaded onto a 1.5 cm×15 cm […] column pre-equilibrated in 10 mM NH4 CO3 buffer (pH 7.9). The column was washed with 50 mL 10 mM NH4 HCO3 and then eluted with a 500 mL gradient of 80-180 mM NH4 HCO3 followed by 150 mL 500 mM NH4 HCO3. Three folate-containing peaks were obtained as detected by UV absorbance at 363 nm. Each peak was collected, lyophilized, and redissolved in deionized water. The purity of each component was confirmed by reverse-phase high pressure liquid chromatography (HPLC) with a 10 mm×250 mm Licrosorb RP-18 column (Altech, Deerfield, Ill.), and evaluation of the conjugates' molecular weights was determined by fast-atom bombardment mass spectroscopy (FAB-MS). The characteristic pKa values of the two DF-folate isomers were obtained by titration on a pH/ion analyzer (Corning, Corning, N.Y.). […] Since the two isoforms of DF-folate conjugate retain either a free γ-carboxyl or free α-carboxyl, they can be distinguished from each other and from unreacted folic acid by their characteristic pKa values, which were determined by titration.

[2] = tested on: membrane transport protein; details: facilitated transport by membrane transport protein; cited from earlier work
[3] = tested on: Rat pheochromocytoma (PC-12) cells; assay: Rat pheochromocytoma cell uptake of biotin conjugated proteins, fluorescent microscope; type: cell-based; details: 37° C., 5, 15 and 33 minutes
Experimental: Rat pheochromocytoma (PC-12) cells were obtained from America Type Culture Collection and were grown (37° C., 5% CO2 in humidified air) attached to plastic flasks for 2 to 3 weeks until confluent in a medium of 85% RMPI 1640, 10% v/v heat inactivated horse serum, and 5% fetal calf serum containing 1% streptomycin-penicillin.
Biotin and fluorescein labeled insulin was prepared.
The rat PC12 cells were grown in modified RMPI 1640 medium as a monolayer on the bottom of a culture flask. Before removing the cells, the monolayer was washed with a 20 ml portion of fresh Locke's solution. The cells were then displaced into 20 ml of the Locke's solution by gentle agitation with a stream Locke's solution. […] The tubes were allowed to incubate at 37° C. At intervals of 5, 15 and 33 minutes, 0.5 ml of each cell suspension was removed and pelleted at 10,000×g for 10 seconds. The cell pellet was washed and repelleted twice in 1 ml Locke's solution and then fixed by addition of 200 l of a 2% formalin solution in phosphate buffered saline. Thirteen microliters of the fixed cell suspension was then added to a microscope slide and viewed with the fluorescent microscope to detect internalized proteins.

[4] = 17 hours after intraperitoneal injection
human HeLa cells = assay: Uptake of ^125 I-labeled folate-labeled RNase by HeLa cells; type: cell-based
[5] = tested on: KB cells (a human nasopharyngeal cell line); assay: Uptake of ^125 I-labeled folate-labeled protein by KB cells; type: cell-based
BHK cells = assay: Ribonuclease-riboflavin uptake by BHK cells; type: cell-based; details: 10 μg/ml, various times (FIG. 4)
[6] = tested on: white blood cells in whole human blood; details: 37° C., 2 hours
Experimental: Fluorescein-labeled RNase was either conjugated to folate or left unmodified (control) following the same general procedure set forth in Example 19. The folate-conjugated and control samples were then added to freshly drawn whole human blood, incubated at 37° C. for 2 hours and then washed thoroughly and examined under the fluorescence microscope.

KB cells = assay: Visualization of ribonuclease endocytosis by KB cells using a confocal microscope; type: cell-based, human; details: 60 minute incubation
Experimental: RNase labeled only with fluoroscein was used as a control. Following extensive dialysis against growth medium, the control and folate-labeled RNase samples were added to separate cultures of KB cells. After 60 minute incubation, the cells were thoroughly washed and examined for uptake. […] Furthermore, using the confocal's capability of focusing on a single horizontal plane in each cultured cell, it was readily evident that vesicles filled with the fluorescent-labeled, folate-bound ribonuclease were forming on all regions of the cell surface, pinching off via endocytosis into the interior, and entering the cytoplasm. The vesicles, measuring […] across, were easily large enough to accommodate large biomolecules such as proteins and DNA plasmids.

pKa (physchem; pKa1): 2.5
pKa (physchem; pKa2): 4.5
Molecule: Nc1nc2ncc(CNc3ccc(C(=O)N[C@@H](CCC(=O)O)C(=O)O)cc3)nc2c(=O)[nH]1 [folic acid, Folic acid, reference compound]
Ka [1]: 500 pM
Km [2]: 1.5 µM

Molecule: fluorescein labeled insulin: non-biotinylated fluorescein labeled insulin, control
cellular internalization (fluorescent microscope) [3]: No evidence of internalization

B1: RNase-Folate: ^125 I bovine ribonuclease with 12-14 covalently bound folates per protein molecule (conjugate, UniProt P61823 27-150, looked up)
Ribonuclease pancreatic: KETAAAKFERQHMDSSTSAASSSNYCNQMMKSRNLTKDRCKPVNTFVHESLADVQAVCSQKNVACKNGQTNCYQSYSTMSITDCRETGSSKYPNCAYKTTQANKHIIVACEGNPYVPVHFDASV
modifications: 125I label; 12-14 folates
brain tissue uptake (delivery across the blood/brain barrier) [4]: brain tissue's preferential uptake of the folate-labeled protein
uptake by HeLa cells (human HeLa cells): corresponding results
reduction of uptake by competitive inhibition ([5]; 100-fold molar excess of unligated folate): 7 fold
molecules per cell internalized ([5]; KB cells, after 30 minutes): 10^7 molecules per cell

B2: RNase A-Rf (6): ^125 I ribonuclease derivatized with 6 riboflavins per protein (conjugate, UniProt P61823 27-150, looked up)
Ribonuclease pancreatic: KETAAAKFERQHMDSSTSAASSSNYCNQMMKSRNLTKDRCKPVNTFVHESLADVQAVCSQKNVACKNGQTNCYQSYSTMSITDCRETGSSKYPNCAYKTTQANKHIIVACEGNPYVPVHFDASV
modifications: 125I label; 6 riboflavins
notes: ^125 I ribonuclease derivatized with 6 riboflavins per protein
uptake of ^125 I-ribonuclease by BHK cells (BHK cells): highest rate of uptake

B3: folate-labeled RNase: Bovine ribonuclease labeled with fluorescein isothiocyanate and further labeled with folate (conjugate, UniProt P61823 27-150, looked up)
Ribonuclease pancreatic: KETAAAKFERQHMDSSTSAASSSNYCNQMMKSRNLTKDRCKPVNTFVHESLADVQAVCSQKNVACKNGQTNCYQSYSTMSITDCRETGSSKYPNCAYKTTQANKHIIVACEGNPYVPVHFDASV
modifications: fluorescein and folate conjugated
cell fluorescence (fluorescence microscope) [6]: found to fluoresce
internal fluorescence (confocal microscope) (KB cells): Only the folate-labeled samples displayed any internal fluorescence
